Data as given in IntAct's records for PubMed 12832462.

B1: Nuclear factor NF-kappa-B p105 subunit (Homo sapiens), P19838 (parent)
chain: MAEDDPYLGRPEQMFHLDPSLTHTIFNPEVFQPQMALPTDGPYLQILEQPKQRGFRFRYVCEGPSHGGLPGASSEKNKKSYPQVKICNYVGPAKVIVQLVTNGKNIHLHAHSLVGKHCEDGICTVTAGPKDMVVGFANLGILHVTKKKVFETLEARMTEACIRGYNPGLLVHPDLAYLQAEGGGDRQLGDREKELIRQAALQQTKEMDLSVVRLMFTAFLPDSTGSFTRRLEPVVSDAIYDSKAPNASNLKIVRMDRTAGCVTGGEEIYLLCDKVQKDDIQIRFYEEEENGGVWEGFGDFSPTDVHRQFAIVFKTPKYKDINITKPASVFVQLRRKSDLETSEPKPFLYYPEIKDKEEVQRKRQKLMPNFSDSFGGGSGAGAGGGGMFGSGGGGGGTGSTGPGYSFPHYGFPTYGGITFHPGTTKSNAGMKHGTMDTESKKDPEGCDKSDDKNTVNLFGKVIETTEQDQEPSEATVGNGEVTLTYATGTKEESAGVQDNLFLEKAMQLAKRHANALFDYAVTGDVKMLLAVQRHLTAVQDENGDSVLHLAIIHLHSQLVRDLLEVTSGLISDDIINMRNDLYQTPLHLAVITKQEDVVEDLLRAGADLSLLDRLGNSVLHLAAKEGHDKVLSILLKHKKAALLLDHPNGDGLNAIHLAMMSNSLPCLLLLVAAGADVNAQEQKSGRTALHLAVEHDNISLAGCLLLEGDAHVDSTTYDGTTPLHIAAGRGSTRLAALLKAAGADPLVENFEPLYDLDDSWENAGEDEGVVPGTTPLDMATSWQVFDILNGKPYEPEFTSDDLLAQGDMKQLAEDVKLQLYKLLEIPDPDKNWATLAQKLGLGILNNAFRLSPAPSKTLMDNYEVSGGTVRELVEALRQMGYTEAIEVIQAASSPVKTTSQAHSLPLSPASTRQQIDELRDSDSVCDSGVETSFRKLSFTESLTSGASLLTLNKMPHDYGQEGPLEGKI

Variants of: B1
Details: with m3k8_human MAP3K8, P41279
Chain of m3k8_human MAP3K8, P41279 (P41279 whole entry): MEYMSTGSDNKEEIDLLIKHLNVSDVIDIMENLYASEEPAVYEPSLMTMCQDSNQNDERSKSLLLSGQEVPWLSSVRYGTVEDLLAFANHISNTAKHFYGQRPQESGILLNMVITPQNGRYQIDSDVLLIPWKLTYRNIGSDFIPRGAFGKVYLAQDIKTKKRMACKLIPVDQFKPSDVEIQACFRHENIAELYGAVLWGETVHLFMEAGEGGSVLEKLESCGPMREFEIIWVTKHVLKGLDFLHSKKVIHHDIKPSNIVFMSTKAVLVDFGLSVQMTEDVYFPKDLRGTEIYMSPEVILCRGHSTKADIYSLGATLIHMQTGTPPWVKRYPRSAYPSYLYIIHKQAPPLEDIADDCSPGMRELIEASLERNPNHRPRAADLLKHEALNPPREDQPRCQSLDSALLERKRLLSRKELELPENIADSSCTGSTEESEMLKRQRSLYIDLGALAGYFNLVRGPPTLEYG

Q: How did the “effect of a mutation on the interaction” value turn out when L841A was run?
A: Its value is “decreasing interaction”.
